Experimental findings from paper PMC4929722 are described below.

Experiment [1] concerns the target BTas-B (bovine foamy virus transactivator Tas of clone pBS-BFV-B, N108) (bovine foamy virus (BFV3026)). Briefly: cross-linking; lysates of transfected HEK293T cells (20 mM Tris-Cl pH 7.5, 150 mM EDTA, 0.5 mM Na3VO4, 1 % NP-40) mixed with 0.01 % glutaraldehyde in 20 mM triethanolamine pH 8.2, 10 mM NaCl, 30 min at room temperature; 12 % SDS-PAGE and immunoblot with anti-BTas.

Experiment [2] concerns the target BTas-Y (bovine foamy virus transactivator Tas of clone pBS-BFV-Y, D108) (bovine foamy virus (BFV3026)). The description is as above.

As a reminder, the stoichiometry N is a count of units in the complex or per binding partner. On to “BTas-B (bovine foamy virus transactivator Tas of clone pBS-BFV-B, N108) (natural protein)”, for which the stoichiometry N in experiment [1] is 2.

As to “BTas-Y (bovine foamy virus transactivator Tas of clone pBS-BFV-Y, D108) (natural protein)”, the stoichiometry N in experiment [2] amounted to 2.
